Assay results as given in the Immune Epitope Database (IEDB).

What was measured:
Assay in all cases: IEDB peptide-MHC binding, purified MHC/competitive/radioactivity; filed as Kd, often an IC50 or EC50 that approximates it; ≥ and ≤ were set here for values at or beyond the usual limits of such assays
[1] = biological target: HLA-A*68:01
[2] = biological target: HLA-A*11:01
[3] = biological target: HLA-A*33:01
[4] = biological target: HLA-A*31:01
[5] = biological target: HLA-A*03:01
[6] = source organism: Vaccinia virus WR
[7] = source organism: Vaccinia virus Copenhagen
[8] = source organism: SARS coronavirus Tor2
[9] = source organism: Lassa virus Josiah
[10] = source organism: Dengue virus 1 Brazil/97-11/1997
[11] = source organism: Dengue virus 2 Jamaica/1409/1983
[12] = source organism: Dengue virus 3 Martinique/1243/1999
[13] = source organism: Dengue virus 1 Nauru/West Pac/1974
[14] = source organism: Dengue virus 4 Philippines/H241/1956

| Sequence | Kd [1, 6] [nM] | Kd [2, 6] [nM] | Kd [3, 6] [nM] | Kd [4, 6] [nM] | Kd [5, 6] [nM] | further results |
| --- | --- | --- | --- | --- | --- | --- |
| KLDNHDILTY | 16400 | 602 | ≥ 70000 | 9280 | 104 |  |
| KLVYIFEPEK | 1690 | 154 | ≥ 70000 | 9210 | 53.7 |  |
| KQMYRKFSR |  |  |  |  |  | Kd [1, 7]: 1210 nM; Kd [2, 7]: 78.8 nM; Kd [3, 7]: 2130 nM; Kd [4, 7]: 4.97 nM; Kd [5, 7]: 209 nM |
| KSAGFPFNK |  |  |  |  |  | Kd [1, 8]: 69.5 nM; Kd [2, 8]: 3.88 nM; Kd [3, 8]: 4890 nM; Kd [4, 8]: 31.8 nM; Kd [5, 8]: 8.65 nM |
| KSIQKNTIFK |  |  |  |  |  | Kd ([2]; source organism: Mammarenavirus machupoense): 5.35 nM |
| KTWMDIEGR |  |  |  |  |  | Kd [1, 9]: 1820 nM; Kd [2, 9]: 1130 nM; Kd [3, 9]: 1710 nM; Kd [4, 9]: 120 nM; Kd [5, 9]: 8460 nM |
| KVTEVKGYTK |  |  |  |  |  | Kd [2, 10]: 212 nM |
| KVVDLGCGR |  |  |  |  |  | Kd [4, 11]: 1.29 nM |
| LALGFFLRK |  |  |  |  |  | Kd [2, 12]: 9.58 nM; Kd [5, 12]: 3.33 nM |
| LITENKIWGR |  |  |  |  |  | Kd [4, 13]: ≥ 21100 nM |
| LIWAYLSKK | 214 | 101 | 4940 | 931 | 21.4 |  |
| LLSGHNLAK |  |  |  |  |  | Kd [1, 8]: 6580 nM; Kd [2, 8]: 90.9 nM; Kd [3, 8]: ≥ 77700 nM; Kd [4, 8]: 6690 nM; Kd [5, 8]: 4.61 nM |
| LMSAAIKDSK |  |  |  |  |  | Kd [5, 10]: 66.7 nM |
| LTAVCMKCFK | 3.9 | 7.88 | 2050 | 38.8 | 29.8 |  |
| LTRNPAWRK |  |  |  |  |  | Kd [1, 8]: 1420 nM; Kd [2, 8]: 3950 nM; Kd [3, 8]: 1570 nM; Kd [4, 8]: 5020 nM; Kd [5, 8]: 222 nM |
| LVCFPSTQR | 10.8 | 40.6 | 73 | 37.5 | 698 |  |
| MFMLIFNVK | 1340 | 587 | 4020 | 125 | 1650 |  |
| MISYGGGWR |  |  |  |  |  | Kd [1, 14]: 111 nM |
| MLNILNRRR |  |  |  |  |  | Kd [4, 11]: 8.37 nM |
| MLSIINKRKK |  |  |  |  |  | Kd [5, 12]: 524 nM |
| MSAAIKDNR |  |  |  |  |  | Kd [1, 11]: 14.4 nM; Kd [4, 11]: 8.82 nM |
| MSAAIKDQK |  |  |  |  |  | Kd [1, 14]: 50.9 nM; Kd [2, 14]: 480 nM |
| MVASDVCKK | 65.8 | 153 | 6980 | 1680 | 266 |  |
| MVSVSDFRDY | 3960 | 17700 | ≥ 70000 | ≥ 70000 | ≥ 70100 |  |
| NAKVGDDVK | 478 | 389 | 16900 | 10100 | ≥ 78000 |  |
| NARMATMLEY | 455 | 34.3 | ≥ 69100 | 734 | 169 |  |

| Sequence | Kd [1, 6] [nM] | Kd [2, 6] [nM] | Kd [3, 6] [nM] | Kd [4, 6] [nM] | Kd [5, 6] [nM] | further results |
| --- | --- | --- | --- | --- | --- | --- |
| NTMCTEETK | 12.5 | 27.9 | 15700 | ≥ 77900 | ≥ 78000 |  |
| NVPERQLILR | 0.0657 | 323 | 2.86 | 87.8 | 18700 |  |
| NVQFVDINR | 0.399 | 193 | 12.7 | 38.1 | ≥ 23000 |  |
| PIIVAGFSGK | 3760 | 761 | ≥ 45600 | ≥ 70000 | 681 |  |
| QLQLLMPLK |  |  |  |  |  | Kd [1, 8]: 13400 nM; Kd [2, 8]: 14.3 nM; Kd [3, 8]: 2350 nM; Kd [4, 8]: 1480 nM; Kd [5, 8]: 151 nM |
| QLVFNSISAR | 49.2 | 299 | 723 | 111 | 304 |  |
| QTPTKLMNK | 178 | 306 | ≥ 77700 | ≥ 22700 | 210 |  |
| RFNVAITRAK |  |  |  |  |  | Kd [1, 8]: 168 nM; Kd [2, 8]: 179 nM; Kd [3, 8]: 7770 nM; Kd [4, 8]: 64 nM; Kd [5, 8]: 168 nM |
| RIENEMKINR | 803 | 2570 | 10800 | 183 | 5560 |  |
| RLLACLCKHK |  |  |  |  |  | Kd [1, 8]: 8480 nM; Kd [2, 8]: 7.15 nM; Kd [3, 8]: 4450 nM; Kd [4, 8]: 25.2 nM; Kd [5, 8]: 0.221 nM |
| RLQLSNGNR |  |  |  |  |  | Kd ([5]; source organism: Homo sapiens): 407 nM |
| RNKRPRLCTR |  |  |  |  |  | Kd ([4]; source organism: Dengue virus 3 Sri Lanka/1266/2000): 51.9 nM |
| RTRDIYISRR |  |  |  |  |  | Kd [1, 9]: 1700 nM; Kd [2, 9]: 4290 nM; Kd [3, 9]: 725 nM; Kd [4, 9]: 28.1 nM; Kd [5, 9]: 393 nM |
| RVIDLGCGR |  |  |  |  |  | Kd [4, 12]: 1.21 nM |
| SQGAGWSLK |  |  |  |  |  | Kd [2, 11]: 77.7 nM |
| TLFVWYFWQK |  |  |  |  |  | Kd [2, 10]: 54.8 nM; Kd [5, 10]: 24.6 nM |
| TLSLDYAWK |  |  |  |  |  | Kd [5, 10]: 181 nM |
| TTKRDLGMSK |  |  |  |  |  | Kd [2, 12]: 115 nM |
| VLARWGTFK |  |  |  |  |  | Kd [2, 12]: 52.3 nM; Kd [5, 12]: 3.08 nM |
| VSILASSLLK |  |  |  |  |  | Kd [2, 11]: 26.2 nM; Kd [5, 11]: 9 nM |
| VSTGSQLAK |  |  |  |  |  | Kd [2, 10]: 332 nM; Kd [5, 10]: 127 nM |
| VSTVSQLAK |  |  |  |  |  | Kd [2, 13]: 248 nM |
| WYFWQKKKQR |  |  |  |  |  | Kd [3, 10]: 8.19 nM |
| YQNKVVRVQR |  |  |  |  |  | Kd [4, 11]: ≥ 36700 nM |
| YVFSGDPLK |  |  |  |  |  | Kd [1, 14]: 12.4 nM; Kd [2, 14]: 159 nM; Kd [5, 14]: 84.4 nM |
